Test: soluble fraction after stress (log2 fold change); higher = more stays soluble; pooled small domains, quantitative proteomics
Conditions: stress: 50 degC
Outline: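 Custom libraries of small protein domains were pooled and measured in a high-throughput format, with quantitative proteomics as the read-out. Each library was stressed at 50°C. The value is the log2 fold change in the amount of each protein that stays soluble after stress, used as a measure of aggregation propensity; higher values mean more of the protein stays soluble.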

Point of comparison: “HMSATQDAAIAVRIRDILSELDGYEDVTVTVTSGIVTMRGTTLDSEKIARLNDLTGRVEGVVAIENSVTET”, “soluble fraction (log2)” value -0.367. Against it:
- HMSAETRSWTDAQGNQTQAVLRGFDGGDVLLQNAAGKTLRVPVKNLSEDDQRYVVLNISTLID — higher, 0.0786
- HMYRIGELAKLADVTPDTIRYYEKQQMMDHDVRTEGGFRLYSDNDLQRLKFIRYARQLGFTLEAIRELLSI — lower, -1.81
- HMSLSPAATRSRGYPSVLLTMKAPERLVSAAGPDRRAYLVGTDPLVIELPGVKGLYKVDPDQIVFE — higher, 0.0566
- HMEYPNEIARIFNQIPELNVSAVARTLGINKSLLSSYIYGMKKPSPERTEEIKSAIRKIGQNMLAV — within 0.2 log units, -0.421
- HMHVGVWIMNEKGEILLEQRASNKKVDPNKWARIGGHVDAGEKPIQAIQREILEEIGVKIPLENFIVLET — within 0.2 log units, -0.335
- HMPLPLYVQIKESLRGQIFDGTYGEHERLPSENDLMSSFGVSRITVRQALSDLEKEELIFKVPGKGAFVSR — lower, -1.32
- HMSYQADEIKEKLIDILQNQKTGLSGLEISERIGINRITMTKYLQVFAAEGFIKQKNIGNVIIWFIEDGTE — within 0.2 log units, -0.181
- HMSEMVIPEDFLAALETNPQAKAFYATLNRQNQYAVYHRLQTAKRPETRAKRIADFVAQLAAGKRF — within 0.2 log units, -0.355
- HMSDESALIAAIEKAIAAQPETAEKVRNGHLPAAGALIGSVMKETKGQADAARVRELLLGLLGQ — higher, 0.139
- HMSNHYETLGVPRDASQEDIKRAYRRLARKLHPDVAGPGKAEEFKAVNEAYAVLSDEESRRMYDLGGDDAL — higher, 0.146
- HMGNVGEAIEALVKGFQEGNQFQTLLGVTGSGKTFTMANVIAALNKPTLIISHNKTLAAQLYLSLIHIS — higher, 0.112
- HMKTYGGDNSLHKFDEHHSWMVAKYGPVVKQTINGETKWLKVKKDLTLAQVKKMKLEDVLLPKSQT — higher, -0.152
- HMSEPHPPFQVVAQFPYKSEYEDDLNFEKDQIITVTSIEDDEWYYGDFKNKGGELVEGIFPKSFVTVK — within 0.2 log units, -0.403
- HMTTTYEINDEMLKPLILEIFNKSKQRFGSTKIAPVLKREGYTASIAKVKTLMNELGIKPVNA — within 0.2 log units, -0.319
- HMSRGTLFVDVRGAVAKPGVYELPEKSRVFQAVEAAGGLLPEALERLVNQAAELTDGQQVYIPFEGEE — higher, 0.296
- HMSSWAEGLTERERHTLMWITKGLSNKLIARELGISDSTVKVYVKNLLRKLNVNSRLELAAWVHTHPL — lower, -0.906
- HMLQIADEYLDRLQALFEDVRDNHFAIGDLLVELVDMHDSRRVDVINYIAGRLAISPTTLYDYENTARR — lower, -0.792
- HMKLRYRTQEELLGVAREYRRRGLPLSVIVIDFYHWTKFGDWKFDPAYWPDPVGMVRELRDMGVEAAV — within 0.2 log units, -0.203
- HMSEPTVVAINETLTSERLDRYLTTQLPHISRGGIQRLLRKGNILVDGKPAKPTQHPVAGQTVEITWPIPK — within 0.2 log units, -0.359
- HMGKKQLVVDLQSIITDVPAALKSYGLEIGQDGKSLIYTYDTKGERTGITTLLNDLQKAGLQMTDMKTQQ — higher, 0.0536
- HMGPTGGLTPHIAIADKRASEAIEFYKQAFGAVEQVRMPAEDGVRLMHAHLLVNGSSLMMHDDFPEYSGQ — higher, 0.0526
- HMDKEPTHLHTFRLIKEGKSSEEIAEIRNITLGTVNTHLAKLIAVGELTIEQVISKHRLDYVMEAIKNSK — higher, -0.16
- HMFVNADEIAKGLSPFNPSSVAIEAGRLMLKRIGELLSAGVSFSVETTLSTRSYINLIQQAQNQGYSVSL — higher, ≥ 0.62
- HMVPSSHNIAQKVKQIKINDLWLDVRERYIYLKNLYLSHPLEKDHPSFIVYVEAVNQIYNQYF — higher, 0.02
- HMHKREKSFFETIYDDIPGIGKKRRVQLLSAYPTLDSLKSVTLEELKQIVPEESAKLILEKRDSR — higher, 0.0407
- HMTLGSVRTVRQVLDDGRLLVADSGGNVTLVRRAGTLAKENVNTGDRVSVDSSVRFALTLIPV — higher, -0.0338
- HMTHAISKTYAVTGEQLKNGFTLTHTFANGSTRRVDVYPGSRSGKVIAVRNTTDDTTEWIRIVEG — higher, 0.0444
- HMSLDLERAVALLSLPRPVGNHPEDGELVEAGIGRYGPYVKHGSKYANLPDADEVFTIGMNRAVEVLAAK — higher, -0.0399
- HMEETLEELGKEYESAFTMYEKLWSYYKKQNYHQVNHKRSERYEILLGFVREYHPEKVEYYRELL — higher, 0.0169
- HMELPVAVPHTELSPEALRGVVESFVLREGTDYGERDVPFEAKVAQVIRQLERGEARIMFDPVTQSVQIVT — higher, 0.102
- HMKAKTYTVQYIDEGKIIKEEELEEGSIINAPEVTKEGHTFIGWYEGEEKYDVYEPITRNLILESKNEIN — higher, -0.137
- HMPVVKIPFILTEGPSSITKVIEIDADEILELKDVFQEDDKLWSINQIEMNDGRYVKHSDASLIVRASALR — higher, 0.066
- HMEPPPSYSALLKQISSGKVKELQLVPARREVIVTYPDGRSATVAILANDQQILRTAEAAGTPLLVK — higher, 0.207
- HMAEPEALLAMAQRILGEEVAQSLFQGAAREQGKEGYLPDPTPAFLDALEARLSGSVGAATAHAMISQLVG — higher, -0.0483
- HMSSPVGIAQATTYVYVRAGHSMQAAKVGVLSPGEKVGVTGRSAQGFSEVVYNGVHRWVGSRYLSPT — lower, -1.4
- HMKITAPLPGTITEIKVKVGDTVKNGDTVVVLEAMKMQNNIEAESNGTVTAIFVNKGDTVMEGDALMTI — higher, 0.14
- HMGTHDAGTRFFDNLDSLLQNRDATRADVLAVYLLAVSLGFRGKHRSVSSAPQIAHYRNQAYVTLFQ — higher, 0.546
- HMSAPLKELGNDPESGKPIVVKDGRFGAYVTDGETNATLRKTDAVESLTPERAAELLAEKRAKG — higher, 0.168
- HMGEQETILKGDVNRDGVVDVNDVTHLQIHISNDDKNPLIDVTNKAWFDAADMYGDGKLDILDATALQIYI — higher, 0.11
- HMSAMSPTEVGERLRLAREAVRMTQKQAADAISVARTTLVAIEQGQRRVRIDELQQLAKTYGVSVNAILR — lower, -0.757
- HMNTSITVPSLKGLSQEAATLKMERLGLHVEVSDTGFVRSLAFGTVLQQSIAPGEKVKPGRLVYITINSD — lower, -1.96
- HMKPDDDMLLKILTKLFIQKQFVINSKDIFQYILKNTNRTYENIINIVNRLDTLSIEKKRQLTIPLIKEI — within 0.2 log units, -0.457
- HMARAPIYPDGLTQREVEVLSLVAAGKTDREIAEELFIALRTVTTHVGNILNKIGAANRTEAAGYATRQGL — within 0.2 log units, -0.459
- HMVVVLPGETIKIDLIREGKDKQALGYLEDGTMIVVDNAKHLIGKNVEIEIDNVLPKEAGRVIFASLHGA — higher, -0.109
- HMKDEHYLYIKARVDNGDYPHLSELKSAEEIELVMPKLLQDGIVEFNKETGEYTIGEDVKAEIERL — higher, 0.108
- HMKTFSFEILADTVKKQRKAKGMTQAELSEATGINRSMIGQMENMTFKPSIEQLEALSQALDFNVIDLYTE — within 0.2 log units, -0.196
- HMLNDMYAVMEIRGQGGELIAKLINQDGSPFYVKKGTTLQSGHVIDEITTTYVRAEKAGAKDYLYF — higher, -0.0846
- HMNEKMKEIGLRIKELRELSDISAQGMADHLKIPLETYQEYEDGKKDIPASILFEISQKMEVDMGLLLTGE — higher, -0.0988
- HMPAVGGVVKGAVVSVGRNEVRLDIGGLAIGIIRGPELDKHVDLRIGDEVEATVITLDNEFGELELSL — lower, -0.72
- HMKQVNVVSVIGQSEANAKTTLTGLGLKVNVAYEEDTSKADGIVLKQSLEGGKTVNEGTTITITVNKIA — higher, -0.0302
- HMDEKVTIPSVSGLLLSEAKTKLVDAGLTVETVYDDESKEAKDTVLSQSPLQYGKVDKGTVVTLTVSSGKG — higher, -0.043
- HMSWAGRRSLAALEARYRDETGISNLKIKHNGVLGYHIEVPSKSADKLMAPDSGFTHRQTLAGAVR — higher, 0.0529
- HMEVPDTIIRLRELVAAMPEQWQKVYRLVFMEGLSKAKAGKKIGISDVRVGQLVKKINAAIAGDETLK — lower, -0.714
- HMNMAVELEDGTQIFVFSEDGEFAGKRAVIADEEGRPTEENAPAGTHTLRDGRSIVVGEGGVIESVVET — higher, 0.0438
- HMKEKQLMTLDDDLYAFLLKHPGIIQKDIYNHFPYDIKGVIADTLYAWDKTGKIKRTKSGNSYIIYT — higher, -0.0536
- HMGEVVSAPMPGTILSIKVSQGQTVKRGQVLLILEAMKMENEIVAPRDGVVVQISTTQGASVETGAPLVVL — higher, -0.0677
- HMIDELLDPTHRIMVRHPRVDYVSPGFLIGPDKDVILWGFTGGIIARLFDFLGWTRPWDQSHVQDLPPYML — within 0.2 log units, -0.202
- HMNKMIDAPDLTGLSLEDAKLVLEANKLQLGTVSHEPSDKPEDVVISQDPMEGQEIQQGGKVNLVVSYGD — higher, -0.0696
- HMEDKIEESLEDNISELFAKTKDKYTLINDLYSKGYTVEELSRFSGLPSGEVRLVISLNSKN — higher, 0.0392
- HMGFDTVVEKVLGLITSRPMTSRDIQMTLGRSREHTSRLMNRLYKEGLVDRNTSSKPFSYIITEKGREKI — higher, -0.0114
- HMNPLDGTSVHPESYEAAEKLLKKQGFSLEDISGGKLTGLSLTIKDYARLAKELEIGEITLRDIVKELEK — higher, 0.0193
- HMIQLKEHDVVRLRETIVENDEKIPAGTRGVVLSVYDGGRAFAVEVADDRAASAIITAFRDQLEVY — higher, -0.136
- HMNSRTLAYSDFIRKVDKGEVSAVVIDGEQVQVQTKDGQTFVTIQPQSEQMNDKLVEQLIAKDISVKAERQ — higher, 0.158
- HMRLSESLLDDIPGIGAARKRALLQSFGSVRKLRHADAEEIAAKVPGIGLNFAEKIVEALRKK — higher, 0.205
- HMTKNIIVTTSVKTSDELVEVAKNHALNLELDFNYRNKKTIKELLSSFDGLVVIYKNKISYFEDNSELF — higher, 0.0798
- HMNTELFTKNLFNKLEVLLGEKNWKSKTAQLLNISSDAFYKKIRNESQLNLHELLLIKDTFKISIDALLDE — lower, -1.24
- HMITLPDFVGKDVETVKAWAKENGITLIVNKVEDSAKKDTVISQTPTTYDYSKIMKGSSFTVNVAKE — higher, -0.0122
- HMSTTSYTQFMEDAKAGKIARVDIKGREITVTPTEGSRYVITSPGDLWMVDDLRKDGVQVYGPP — higher, 0.101
- HMPLNAHIVGRGKRDRRGKRGAPYSIVLELGRDENGKRIQKWYSGYPTKAAAEEDKIRMLRELQTGEYVPQ — within 0.2 log units, -0.309
- HMLKHSKQRDAIEQFLATRYDHPTAETVYMNLREEYPKLSLATVYRNLSLLAELGNIQKIPTGNGPDRFDG — within 0.2 log units, -0.555
- HMPDLQDTLYRLVPEDGSAIGNQSLREKFLSTAKDASDADFEAARDGLVEQGKLTKGKGRGGSVRRAEP — higher, 0.389
- HMVFQTAAEKAYEIISKKIMKGEYEPGMRLVRRQLAQELGVSPIPILEAMKRLEQDGLIEYKAHWGSIVTI — lower, -1.97
- HMSGEMGIIVAKRLPIRSEPDELATRAFVLKAGTRVKIVKHLNGWLEIVHDGKAGYVQDLEVYVRVIG — within 0.2 log units, -0.524
- HMGAAIEYGDRGNTVLQAQRLLIARGYMAGSADGIYGRQMEQAVKRFQKEQGLPESGVVDRRTLQVLIRSR — lower, -0.626

Reference: the domain aggregation screens of Martell et al. (2025)
